Values of other authors, collected in publication PMC12326988, “Synthetic host defense peptide inhibits SARS-CoV-2 replication in vitro” (Antimicrobial Agents and Chemotherapy, 2025).

Test system: binding of the SARS-CoV-2 RBD to its human ACE2 receptor

B1: HD5 (peptide, UniProt Q01523 20-94, looked up)
Defensin alpha 5: ESLQERADEATTQKQSGEDNQDLAISFAGNGLSALRTSGSQARATCYCRTGRCATRESLSGVCEISGRLYRLCCR
modifications: Defensin-5
Question: For B1, which “affinity, interference with binding of SARS-CoV-2 RBD to human ACE2” value is on record?
Answer: The value was 76.2 nM.
